Measurements: patent publication US8962697

Tests used:
[1] = system: T1, LAR-7047
T1 sequence: VFFRRQTA

[2] = system: T2, LAR-7022
T2 sequence: ADDIGTSRPQE

[3] = system: T3, LAR-7048
T3 sequence: PRRICV

Substance: Staphopain A and Staphopain B
- degradation of the control peptide [1]: No degradation was observed in these systems
- hydrolysis of the peptide substrate, fragments by mass spectrometry [2]: Degradation of LAR-7022 (b-ADDIG-TSRPQE): 1188.56 amu produced specific fragment pick: 717.37 corresponding to TSRPQE sequence
- degradation of the control peptide [3]: No degradation was observed in these systems
